T1: recombinant membrane-bound human FAP solubilised in detergent extracts of transfected cells (293FAP 1/2, … (human, UniProt Q12884 1-760))
T1 construct: Same protein as m5, but isolated from the cells; also called recombinant human FAP
T1 sequence (looked up): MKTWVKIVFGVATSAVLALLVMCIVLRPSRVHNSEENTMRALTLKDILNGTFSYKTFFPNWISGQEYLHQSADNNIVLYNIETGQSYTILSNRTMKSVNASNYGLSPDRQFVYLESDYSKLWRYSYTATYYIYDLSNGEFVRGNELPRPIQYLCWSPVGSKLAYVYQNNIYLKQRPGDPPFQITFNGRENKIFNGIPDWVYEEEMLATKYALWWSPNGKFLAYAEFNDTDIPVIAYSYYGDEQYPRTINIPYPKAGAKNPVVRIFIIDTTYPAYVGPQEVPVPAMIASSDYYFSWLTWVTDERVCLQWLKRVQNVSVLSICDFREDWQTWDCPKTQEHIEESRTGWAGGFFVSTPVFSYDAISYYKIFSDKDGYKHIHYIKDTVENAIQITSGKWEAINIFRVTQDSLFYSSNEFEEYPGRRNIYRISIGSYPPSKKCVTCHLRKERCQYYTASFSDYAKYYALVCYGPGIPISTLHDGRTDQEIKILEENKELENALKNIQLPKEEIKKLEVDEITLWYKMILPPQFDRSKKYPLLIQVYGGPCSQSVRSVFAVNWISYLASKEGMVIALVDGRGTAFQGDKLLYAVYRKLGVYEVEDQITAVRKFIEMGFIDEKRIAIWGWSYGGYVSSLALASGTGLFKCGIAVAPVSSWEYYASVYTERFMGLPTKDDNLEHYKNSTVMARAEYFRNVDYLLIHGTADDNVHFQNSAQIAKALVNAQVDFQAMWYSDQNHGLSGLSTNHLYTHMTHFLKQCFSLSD

B1: chimeric F19 antibody (cF19), mouse F19 variable regions joined to human kappa and gamma-1 constant regions (antibody, human IgG1, kappa, V domains shown)
VH: VQLQQSGPELVKPGASVKMSCKTSRYTFTEYTIHWVRQSHGKSLEWIGGINPNNGIPNYNQKFKGRATLTVGKSSSTAYMELRSLTSEDSAVYFCARRRIAYGYDEGHAMDYWGQGTSVTVSS
VL: DIVMSQSPSSLAVSVGEKVTMSCKSSQSLLYSRNQKNYLAWFQQKPGQSPKLLIFWASTRESGVPDRFTGSGFGTDFNLTISSVQAEDLAVYDCQQYFSYPLTFGAGTKLELKR
notes: Biotinylated in some assays; also called biotinylated cF19
B2: LAHC (reshaped human anti-human FAP monoclonal antibody: F19 human reshaped light chain variable region version A with heavy chain variable region version C, … (antibody, V domains shown)
VH: QVQLVQSGAEVKKPGASVKVSCKTSRYTFTEYTIHWVRQAPGQRLEWIGGINPNNGIPNYNQKFKGRVTITVDTSASTAYMELSSLRSEDTAVYYCARRRIAYGYDEGHAMDYWGQGTLVTVSS
VL: DIVMTQSPDSLAVSLGERATINCKSSQSLLYSRNQKNYLAWYQQKPGQPPKLLIFWASTRESGVPDRFSGSGFGTDFTLTISSLQAEDVAVYYCQQYFSYPLTFGQGTKVEIKR
notes: The name joins light version A (LA) and heavy version C (HC); also called biotinylated LAHC; BIBH 1

Legend:
[1] = biological target: human fibroblast activation protein alpha (FAP) on the cell surface (human) (UniProt Q12884); experiment: flow cytometry, MF-SH cells with endogenous FAP, antibody at 4000 ng/ml
[2] = biological target: human fibroblast activation protein alpha (FAP) on the cell surface (human) (UniProt Q12884); experiment: flow cytometry, HT-1080FAP clone 33 cells, antibody at 0.8 ng/ml, FITC anti-human IgG
[3] = biological target: human fibroblast activation protein alpha (FAP) on the cell surface (human) (UniProt Q12884); experiment: flow cytometry, HT-1080FAP clone 33 cells, antibody at 4.0 ng/ml, FITC anti-human IgG
[4] = biological target: human fibroblast activation protein alpha (FAP) on the cell surface (human) (UniProt Q12884); experiment: flow cytometry, HT-1080FAP clone 33 cells, antibody at 20.0 ng/ml, FITC anti-human IgG
[5] = biological target: human fibroblast activation protein alpha (FAP) on the cell surface (human) (UniProt Q12884); experiment: flow cytometry, HT-1080FAP clone 33 cells, antibody at 100.0 ng/ml, FITC anti-human IgG
[6] = biological target: human fibroblast activation protein alpha (FAP) on the cell surface (human) (UniProt Q12884); experiment: flow cytometry, HT-1080FAP clone 33 cells, antibody at 500.0 ng/ml, FITC anti-human IgG
[7] = biological target: human fibroblast activation protein alpha (FAP) on the cell surface (human) (UniProt Q12884); experiment: flow cytometry, HT-1080FAP clone 33 cells, biotinylated antibody at 1.6 ng/ml, streptavidin-FITC
[8] = biological target: human fibroblast activation protein alpha (FAP) on the cell surface (human) (UniProt Q12884); experiment: flow cytometry, HT-1080FAP clone 33 cells, biotinylated antibody at 8.0 ng/ml, streptavidin-FITC
[9] = biological target: human fibroblast activation protein alpha (FAP) on the cell surface (human) (UniProt Q12884); experiment: flow cytometry, HT-1080FAP clone 33 cells, biotinylated antibody at 40.0 ng/ml, streptavidin-FITC
[10] = biological target: human fibroblast activation protein alpha (FAP) on the cell surface (human) (UniProt Q12884); experiment: flow cytometry, HT-1080FAP clone 33 cells, biotinylated antibody at 200.0 ng/ml, streptavidin-FITC
[11] = biological target: human fibroblast activation protein alpha (FAP) on the cell surface (human) (UniProt Q12884); experiment: flow cytometry, HT-1080FAP clone 33 cells, biotinylated antibody at 1,000.0 ng/ml, streptavidin-FITC
[12] = biological target: human fibroblast activation protein alpha (FAP) on the cell surface (human) (UniProt Q12884); experiment: flow cytometry, HT-1080FAP clone 33 cells, biotinylated antibody at 5,000.0 ng/ml, streptavidin-FITC
[13] = biological target: human fibroblast activation protein alpha (FAP) on the cell surface (human) (UniProt Q12884); experiment: competition flow cytometry, HT-1080FAP clone 33 cells, unlabelled competitor at 1.00 µg/ml against 1 µg/ml biotinylated cF19; signal of bound biotinylated cF19
[14] = biological target: human fibroblast activation protein alpha (FAP) on the cell surface (human) (UniProt Q12884); experiment: competition flow cytometry, HT-1080FAP clone 33 cells, unlabelled competitor at 3.16 µg/ml against 1 µg/ml biotinylated cF19; signal of bound biotinylated cF19
[15] = biological target: human fibroblast activation protein alpha (FAP) on the cell surface (human) (UniProt Q12884); experiment: competition flow cytometry, HT-1080FAP clone 33 cells, unlabelled competitor at 10.00 µg/ml against 1 µg/ml biotinylated cF19; signal of bound biotinylated cF19
[16] = biological target: human fibroblast activation protein alpha (FAP) on the cell surface (human) (UniProt Q12884); experiment: competition flow cytometry, HT-1080FAP clone 33 cells, unlabelled competitor at 31.66 µg/ml against 1 µg/ml biotinylated cF19; signal of bound biotinylated cF19
[17] = biological target: T1, recombinant membrane-bound human FAP …; experiment: sandwich ELISA, cF19 as capture antibody
[18] = biological target: human fibroblast activation protein alpha (FAP) on the cell surface (human) (UniProt Q12884); experiment: flow cytometry, MF-SH cells with endogenous FAP, antibody at 500 ng/ml
[19] = biological target: human fibroblast activation protein alpha (FAP) on the cell surface (human) (UniProt Q12884); experiment: flow cytometry, MF-SH cells with endogenous FAP, antibody at 1000 ng/ml
[20] = biological target: human fibroblast activation protein alpha (FAP) on the cell surface (human) (UniProt Q12884); experiment: flow cytometry, MF-SH cells with endogenous FAP, antibody at 2000 ng/ml
[21] = biological target: human fibroblast activation protein alpha (FAP) on the cell surface (human) (UniProt Q12884); experiment: flow cytometry, HT-1080FAP clone 33 cells, 1 µg/ml biotinylated cF19 without competitor (0.00 µg/ml)
[22] = biological target: T1, recombinant membrane-bound human FAP …; experiment: sandwich ELISA, detergent extract of 293FAP 1/2 cells on cF19-coated plates, HRP-streptavidin

Molecule	Mean fluorescence intensity [1]	Mean fluorescence intensity [2]	Mean fluorescence intensity [3]	Mean fluorescence intensity [4]	Mean fluorescence intensity [5]	Mean fluorescence intensity [6]	Mean fluorescence intensity [7]	Mean fluorescence intensity [8]	Mean fluorescence intensity [9]	Mean fluorescence intensity [10]	Mean fluorescence intensity [11]	Mean fluorescence intensity [12]	Mean fluorescence concentration [13]	Mean fluorescence concentration [14]	Mean fluorescence concentration [15]	Mean fluorescence concentration [16]	also measured
hIgG1 (human immunoglobulin, IgG1 subclass), negative control (antibody)	0.6	0.12	0.12	0.12	0.12	0.12	0.3	0.2	0.2	0.2	0.2	0.2	9	11.3	9.8	10.3	
B1	3.6	0.14	0.17	0.43	1.63	6.65	0.3	0.5	1.3	4.5	18.1	36.5	7.5	4.8	1.3	1.2	binding result [17]: binds; Mean fluorescence intensity [18]: 1.8; Mean fluorescence intensity [19]: 2.4; Mean fluorescence intensity [20]: 3.3; Mean fluorescence concentration [21]: 11.2
B2																	binding result [22]: binds
